Assay results as given in patent US20030170203A1 (Human Genome Sciences, published 2003).

Experiments:
[1] = biological target: T1, FLAG-tagged soluble form of TNF-gamma-beta (aa 72-251) (human, UniProt O95150 72-251); test: co-immunoprecipitation with protein A-Sepharose, anti-Flag M2 immunoblot
T1 construct: also called FLAG-TL1β; FLAG-TNF-gamma-beta; not shown: FLAG tag of vector pFLAGCMV1
T1 sequence (looked up): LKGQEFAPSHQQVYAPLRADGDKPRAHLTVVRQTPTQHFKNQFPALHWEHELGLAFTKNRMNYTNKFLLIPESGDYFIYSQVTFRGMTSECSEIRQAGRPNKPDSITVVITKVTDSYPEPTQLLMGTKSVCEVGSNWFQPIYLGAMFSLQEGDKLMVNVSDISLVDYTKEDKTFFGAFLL
Text: The beads were then precipitated and washed extensively with PBST buffer (PBS, 0.5% Triton X-100) before boiled in SDS-sample buffer. Proteins were resolved on 4-20% Tris-Glycine gels (NOVEX), transferred to nitrocellulose membranes, and blotted with anti-Flag M2 monoclonal antibody (1 microgram/ml, Sigma) and horseradish peroxidase (HRP)-conjugated goat anti-mouse IgG antibody (0.5 microgram/ml).

[2] = biological target: T2, full length TNF-gamma-beta expressed on the cell surface (human, UniProt O95150 1-251); test: flow cytometry on HEK293F stable transfectants expressing full length TNF-gamma-beta
T2 construct: whole, on cells; also called TNF-gamma-beta expressing cells
T2 sequence (looked up): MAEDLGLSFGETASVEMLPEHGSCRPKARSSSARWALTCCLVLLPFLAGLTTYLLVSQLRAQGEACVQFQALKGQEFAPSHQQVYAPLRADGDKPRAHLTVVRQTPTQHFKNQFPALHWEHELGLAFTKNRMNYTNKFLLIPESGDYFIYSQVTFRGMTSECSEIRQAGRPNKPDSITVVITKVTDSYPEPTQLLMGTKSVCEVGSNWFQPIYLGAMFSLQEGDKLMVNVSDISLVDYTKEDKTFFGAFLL
Experimental: TR6 has been previously described as a decoy receptor (Pitti et al., Nature 396:699-703 (1998); Yu et al., J. Biol Chem. 274:13733-6 (1999)) capable of competing with Fas and HveA for binding of FasL and LIGHT, respectively.
One million cells, in 0.1 ml of FACS buffer (PBS, 0.1% BSA, 0.1% NaN₃), were incubated with 0.1-1 microgram of protein or antibody at RT for 15 min. The cells were washed with 3 ml of FACS buffer, reacted with biotinylated primary antibody, and stained with PE-conjugated secondary antibody at RT for 15 min. Cells were then washed again, resuspended in 0.5 microgram/ml of propidium iodide, and live cells were gated and analyzed on a FACScan using the CellQuest software (BD Biosciences).

[3] = biological target: T3, recombinant, untagged TNF-gamma-beta protein (aa 72-251) from E. coli (human, UniProt O95150 72-251); test: BIAcore 3000 (SPR), receptor-Fc amine-coupled to CM5 chip, TNF-gamma-beta in flow
T3 construct: Purified from E. coli
T3 sequence (looked up): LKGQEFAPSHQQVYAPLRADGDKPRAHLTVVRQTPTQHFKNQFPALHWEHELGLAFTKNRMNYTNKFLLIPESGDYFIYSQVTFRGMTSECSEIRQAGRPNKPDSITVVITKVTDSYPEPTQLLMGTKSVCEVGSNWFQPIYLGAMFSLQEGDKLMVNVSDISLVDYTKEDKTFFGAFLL
Experimental: TNFR-Fc were covalently immobilized to the BIAcore sensor chip (CM5 chip) via amine groups using N-ethyl-N′-(dimethylaminopropyl) carbodiimide/N-hydroxysuccinimide chemistry. […] The amount of bound protein was determined during washing of the flow cell with HBS buffer (10 mM HEPES, pH 7.4, 150 mM NaCl, 3.4 mM EDTA, 0.005% Surfactant P20). The flow cell surface was regenerated by displacing bound protein by washing with 20 microliters of 10 mM glycine-HCl, pH 2.3. For kinetic analysis, the on and off rates were determined using the kinetic evaluation program in BIAevaluation 3 software using a 1:1 binding model and the global analysis method.

Row | Binder | binding result [1] | binding result [2] | binding result [3]
1 | extracellular domain of human TACI (aa 1-159) fused at its C-terminus to the Fc domain of human IgG1 (Fc fusion, UniProt O14836 1-159, looked up, not shown: a dimerising Fc or GST, range 1-159; also called TACI-Fc) MSGLGRSRRGGRSRVDQEERFPQGLWTGVAMRSCPEEQYWDPLLGTCMSCKTICNHQSQRTCAAFCRSLSCRKEQGKFYDHLLRDCISCASICGQHPKQCAYFCENKLRSPVNLPPELRRQRSGEVENNSDNSGRYQGLEHRGSEASPALPGLKLSADQ | no binding | no binding | 
2 | BCMA-Fc (Fc fusion, human, UniProt Q02223 1-54, looked up, Control receptor surface of the BIAcore analysis; not shown: Fc) MLQMAGQCSQNEYFDSLLHACIPCQLRCSSNTPPLTCQRYCNASVTNSVKGTNA |  |  | no binding (tested: 3-370 nM)
